Values of other authors in patent US20040101532A1, “Methods and compositions for heat shock protein mediated immunotherapy of melanoma” (priority 2004, published 2004).

What was measured:
[1] = system: CD8+ cytotoxic T lymphocytes; details: HLA-A*0201-restricted TRP-2 peptides
gp100 = details: detected without extensive preliminary in vitro sensitization
[2] = vaccinated patients
tyrosinase = details: vaccinated patients, after immunization with the tyrosinase peptide antigen

TLDSQVMSL [TRP-2(360-368), HLA-A*0201-restricted TRP-2 peptide]
induction of specific CD8+ cytotoxic T lymphocytes [1]: induced specific CD8+ cytotoxic T lymphocytes

IMDQVPFSV [gp100:209-217 peptide modified at second position, methionine for threonine]
anti-gp100 T cell reactivity induced by immunization (gp100): induce anti-gp 100 T cell reactivity

VMGTLVALV [TRP-2(476-484), HLA-A*0201-restricted TRP-2 peptide]
induction of specific CD8+ cytotoxic T lymphocytes [1]: induced specific CD8+ cytotoxic T lymphocytes

YMDGTMSQV [tyrosinase:368-376 (370D)]
tolerability in clinical trial [2]: well tolerated with little toxicity
increase in T cell responsiveness against tyrosinase by ELISPOT (tyrosinase): Two of nine vaccinated patients showed an increase in T cell responsiveness
